Experimental data from the DeepSol protein solubility set.

assay: soluble on expression in E. coli; label from the status in PepcDB or PDB records

Sequence | soluble on expression in E. coli
YWASSQLTQLFLSTDLESLEPTCLSKDTIYQWKVVQTFGDRLRLRQRVLATAIVLLRRYMLKKNEEKGFSLEALVATCIYLSCKVEECPVHIRTICNEANDLWSLKVKLSRSNISEIEFEIISVLDAFLIVHHPYTSLEQAFHDGIINQKQLEFAWSIVNDSYASSLCLMAHPHQLAYAALLISCCNDENTIPKLLDLIKSTDAFKVILCVQRIISIYYFEDIEAAALEHHHHHH | soluble
SLVNPNQFKPLIVEQAKKQTGLDLVIEGDIGWQFFPSIGFELGKTELKNPQGFASPNLFKVESVGIDVSVMPLLDKQLKIGNIRLDGAEFHLETLKDGRSNLDALTQAQSKPASAPATTDSAPASQPSSSEPAAAWSIELGGVSVSNAVLEITDKKAGSHTKLYDVQLSVAEFVPDNWTKATFAAKGDKDQQKFAAQGEAEVRLSADFKQYALRNINLDASFSDPSNQIDSAKLKLDTFEFDKANALTFSVAGKAADMKLNAQGSASLMVNQAISKVGLDALKLQAELEGAALPQSPMKLSLDSQIAFDLTQNHLSVLLNKLTANALSFDGKADVTLADIPKVRFNLHSPEIDLDAFLGTKAQESQPAPAKEAAASSSSAPATNAPAEVEPDLSALKALDVAGEISIDKFKASNAHLQNVKANFAVNRGVVDLKSFTANLYQGSVQASAQVDARKTPATYSVKKQIKGVQVKPLLKDVLNNEMLEGTGNIDVNVQGQSLTPSGIQKNLVGTVAINFADGAVKGINVAHLIRTHYAKIKGQNVEEADAVKKTDFSAMTTTLKLNKGEVTTNDLNMQSPLLRIHGEGKANYLQQNVDFLVRTSIVGTLEGQGGKSLDELRDVTIPINISGAWSDPKFRLVFDDVLKQKAKKEVDRGVEKLTDKIKDEDTKKAVDGLLKGLFN | soluble
MNQWRVIHNKSYEGAMNMAIDEAIFTAYKKGHNKPTLRFYTWEPACLSIGYFQKLEDEIDLDKCRCMNIDYTRRITGGRAVLHDNELTYSIIIGEDNPLIDKSINLSYRYISEGLVKGLNLSGIETDNLNRGERISRENLSAACFNAHASYEVTINNKKVIGSAQSRKDGVLLQHGSIILDFDVEKLFKLIKTKTPELKERAMKFTAKKASGIENEIGRKIDIDILQKNIVKGLAEQFNVEFVEGDLTDYEKQLVKELYEKYKNEEYN | not soluble
MKVISLKKDSFNKGGAVITLLPEDKEDLFTVYQIVDKDDELIFKKKFTSKLDEAGKKKSTDLVKLKIKVISEDFDMKDEYLKYKGVTVTDESGASNVDIPVGKYLSFTLDYVYPFTIIKQNFNKFMQKLLNEACNIEYKSDTAAVVLQEGIAHVCLVTSSSTILKQKIEYSMPKKKRTTDVLKFDEKTEKFYKAIYSAMKKDLNFDKLKTIILCSPGFYAKILMDKIFQYAEEEHNKKILDNKGMFFIAHCSTGYLQGINEVLKNPLYASKLQDTKYSKEIMVMDEFLLHLNKDDDKAWYGEKEVVKAAEYGAISYLLLTDKVLHSDNIAQREEYLKLMDSVESNGGKALVLSTLHSLGEELDQLTGIACILKYPLPDLDEDDGEE | soluble
MPLRQKRLYWPLFFRDDLIMEKNKLQLEYVFDRVSTRSLWRYLSTPDGLSEWFAYDVRLEDNGDFYFQWDKNSGEKASVLEQREGERIRFQWHREQDQNACFEFVIHHSELTGGKSLEVIDYIAPEEVADMEHFWNNLISRLRLSLGAPE | not soluble
MHNFIYITAPSLEEAERIAKRLLEKKLAACVNIFPIKSFFWWEGKIEAATEFAMIVKTRSEKFAEVRDEVKAMHSYTTPCICAIPIERGLKEFLDWIDETVE | soluble
MSLAHKAKLKIIPLGGLNEIGKNMTVFEYGNDIIVVDCGLAFPDDEMLGIDLVIPDITYLLKNREKVKAIVLTHGHEDHIGALPYVLKQLNVPIYGTRLTIGLVEYKLKEHGLLRDSKLITVKPRETVEIGQFKVEFIRTSHSIADSAALAIHTPVGTVFHSGDFKIDFTPIDGEVPDLHRFAQLGEKGVLVMLCDSTNIERPGYTMSERTVGETFDNLFRKAEQRIIVATFASNIHRVQQIINSAQKYGRKVAISGRSMVNVVNVAMELGYLTVPEGLLIDLDEANKLPHNKVVIITTGSQGEPMSALTRMASSEHKKVEIVPGDTVIISASPIPGNERLISRVINQLFKKGANVIYEALADIHVSGHACQEEIKLLHTLIKPKFFIPVHGEYRHLVQHAKLAESLGMPPENIFVVDNGTVLEFTKEGHHHHHH | soluble
MHNIYFYKDKNGNEPVFDYMRELTSKKGKDSRIKLNKINDYIELLSQHGTRAGEPYIKHLDAEIWELRPLRDRILFVAWMDGSFVLLHHFMKRTQKTPKREIEQAKRELADLKERGLDNEK | not soluble
MDVRIRAIDERSYLNIISAIFKDLGLPQLIDRLVPVDRQCQTRTSDIVSLIILDILSGRQALVHLERWAHDIDWPKWIRPGPDPSWFNDDAIARHLDRLYEANIHQVLSSCLVQIDKKEGLSLRVFHADATDKTVYGAYESDSSDVLHITYGYNRHHRWQKPIGFGLIGNEDGIPFYGDVHDGNLSDKAWNPEVLSRIHEQFKQAKIDDEWMYVADSVAMTKETLAQTKAANAFLITRGPSSLRIVKTALSEADAQPDSAWSAPLRWPRKTAPRIGYGKRPRPMKAAPYG | not soluble
KVTNRHFQDVPALEVVTTTHLDQPLPLVIFYHGWQSNKELVLTQARKLARKNLRVVLPDAMNHGERHQIVSQIPSFTFWNSIQGNLGEFELIVNYYRERKLILNEQIGVGGYSMGGMTTGALLTHHPEIKAATIIMGTPNLNAYAQLVRKHAQAHAYYIPSDLALLTSWLDHYDLNLQPETINHRPLLFWHGTEDERIPYSQSRNFFDRVHTAPYAEQVAFITGYQAKHLVKVPLMNKVANFFDYYLN | not soluble
MAEAGIAHTALPLEAIPEKSAGKGEGLTLIIYMLELALHAIPENLKKTVYSKVELMAPRSDGVLLFYGLCGNVLGKIEEDFRALDCRVSILKEENGEIVDDCIGAVLGGRGHYLEALKSCRGAGTFFLTPMWAVNWREMIRTAGLSRNPDDIEMSKFVFDYAGYKRVARVNTGLAYEKDFDARVKEFSTLFEFEVTDLEGTLQLVENCYAKTKASMLEACPHSQTLEHHHHHH | not soluble
MDDHAFAAPAPAAPTAPALPMAVLAELTHRCPLQCPYCSNPVELEAASRELSTEDWQRVIGELAALGVLQIHFSGGEPLVRRDLVALVAHADRAGLYTNLITSAVMFTRAKVAELAEAGLAHVQVSLQGASAPVAERIGGFRGGHAKKIEAAAWVRAEGMALTLNAVMHRQNLDELPRIVEMAVEMGAQRLEVAHVQYYGWALKNRAALMPTLAQLDEATRIVEEAQARLSGVLAIDYVIPDYYAVRPKTCMGGWGRQFFNISPSGKVLPCHAAETITGLRFDSVREAPLAEIWQRSEALNLYRGTGWMQEPCRSCIHAEEDFGGCRCQAFALAGDAAATDPACAKSPLHAQLFSLAGAEAEAGADRFLYRNFSGGTPEG | not soluble
MGSDKIHHHHHHVVQKFNRLFGKSNKGVGIELAPERVNVVQLRKQRQGLKLETFTSVAVPEGVVTDGQITDPAAMAQLIQQALAESKIKTTRVATGVPGRDSIVRIIPVPTELDDKELREMVLNHEAGLYLPYPREEADVDYQKLDYFVDEDGIEKVHVLLVATRKEITDTYISTFEQAGLQIDVLEINSFALIRTIREQLRQFGPQEAAVLVDIEFDSTEIAIIVNGVPQFSRTVPIGTYQMQTALARAMSLPTSRDMELLHGMIIPPTPLDGGKTGVTEIDPGMAAILRVLGELTDELRRSIDFYLNQSENLEVAQILLAGPGGGLQQLDEFFTQRLSLPTTQIDPIGSLSLEVDTDKYPQVKRSGLAIVLGLGMREV | not soluble
MQESAQFFNDTGVSMSMQGFHNEAIACLKKGLALEPDNSLMWLNLGLSYYAAKRQNDSKFALFQSLKYNPYEADAWDSLGLVLFETGDIDQAERAFESAIKLEPENGRVWNNYGTVLFNKENYRAARRAFESAVTLDPEMGDAVFNLRDTYLELGMNDLAERCNKILKEMDYQE | not soluble
MRLFHTSDWHLGQNLHGQERDFEHACFLTWLLARLAERQPDVLLIAGDIFDTVNPPVKAQERLYDFIVNAHEQQPLLTIVMIAGNHDSGSRIELPAPLMRRLRTHALGRVMWLNDGVLDAERLLLPLPDANGDIKAWCLALPFLRPAEVTGPTLGDDYLRGIGRVHELLIDAANLKRQPGQALIAISHAHMAGGSVSEDSERSLIIGNAEALPASLFGPSITYVALGHLHKPQRVNGEERIRYSGSPIPLSFSEIGYQHQILEINCDGDTLTSVEPCLIPRAVNLQRLGPAPLADLLVQLKSLPDIDLLADPDRQPWLEVRVRLDEPQPDLRNQIETALQGKAVRLVRIGAEYAGKGSADGSDGEAGLIELDQLTPQELFSRAWQDNFGSEVDEQTLTDFATLLREVQQESEQP | not soluble
MAHDLARGDKSDLRDKVVKPITNNVSVLVMGVDESDVRGKEYGDAIRTDALLLATFNKDSKTVKLLSIPRDTYTYIPVEKKKDKITHAHAYGSTKNGKDGGPQASIDAVEKLLNVPVDYFVKFNFKSFMKIVDDLGGIEVDVPVEFTEQDSNDNADAIHLKKGVQKLNSEEALALARTRHIDSDAMRGQRQQLVIEAILKKLTSVGSVTKVGNIIDDINGQFVTNLTFDDMLSFYKYGSDSEIEKLQIQGEDCYMAKGLEHHHHHH | soluble
MADKSSRSLILYGDGLARFVDPSNTNIHSLASVATCGFLSLPNAPPETENERIVREFSHLLDASEAYSIASGLKPKGNGNDISTLAERFMGLKAALVTDSSTLTSFGKLIGLDVLQLSEICQESDSFPSDATSSKLLKLLGFEGGKCLDVNLYDLVFVHFGVDEYNNGNNMGILDSLIGSIMGMAQPGSEILSRLHLSVVLSYGSVTDKDVSVFPIKTPQEDINPAFIGLVPRQSYTMRGEKTRDDVRHYCPMLVAQWQHGVTRKDLVDTLSFEALKKLCGNLVIPADRFIHEVAFKLWKAPKYGA | soluble
KKMAFTLADRVTEEMLADKAALVVEVVEENYHDAPIVGIAVVNEHGRFFLRPETALADPQFVAWLGDETKKKSMFDSKRAAVALKWKGIELCGVSFDLLLAAYLLDPAQGVDDVAAAAKMKQYEAVRPDEAVYGKGAKRAVPDEPVLAEHLVRKAAAIWELERPFLDELRRNEQDRLLVELEQPLSSILAEMEFAGVKVDTKRLEQMGKELAEQLGTVEQRIYELAGQEFNINSPKQLGVILFEKLQLPVLKKTKTGYSTSADVLEKLAPYHEIVENILHYRQLGKLQSTYIEGLLKVVRPATKKVHTIFNQALTQTGRLSSTEPNLQNIPIRLEEGRKIRQAFVPSESDWLIFAADYSQIELRVLAHIAEDDNLMEAFRRDLDIHTKTAMDIFQVSEDEVTPNMRRQAKAVNYGIVYGISDYGLAQNLNISRKEAAEFIERYFESFPGVKRYMENIVQEAKQKGYVTTLLHRRRYLPDITSRNFNVRSFAERMAMNTPIQGSAADIIKKAMIDLNARLKEERLQAHLLLQVHDELILEAPKEEMERLCRLVPEVMEQAVTLRVPLKVDYHYGSTWYDAK | soluble
MGSDKIHHHHHHMTEKATLAKQILHFNETLSSNSMDLPAGYRVINPYEGDQKELVRNITTRFYQKYYNDTKPRRIIFGSSPARRGSAVTGVPFEDAKHLQSETGIFIDTFYINQSSSDFLYDVMNEYGGCEQFYSDFYMNFVCPLGIVRINAKGNEVNCNYYENKQLREALMPFIIESIRSQIDFGMDTSVCYCIGSGENFKFLSRINEEHHFFETIIPLEHPRFIMQYNSKNKDTYMEKYLCALKI | not soluble
